Test results from the supplement of paper PMC10567573.

B1: C22orf15 (parent)
chain: RGRHEQSPTSRPRKVSSLPPRSC
B2: CCND2 (parent)
chain: YFKCVQKDIQPYMRRMVATWMLEV
B3: TAF7L (parent)
chain: PDVENEVKRLLRSDAEAVSTRWEV

Variants of: B1
Experiment: protein stability index of a GFP-peptide fusion (GPS, HEK-293T) (PSI 1-6); higher = more stable
Conditions: c terminus: native
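Note: lentivirally expressed fusions sorted by FACS into six bins by GFP to DsRed ratio, PSI derived from sequencing read proportions per bin multiplied by bin number.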

Protein stability index: each site, then its substitutions
C23: T 2.97 | V 3.28 | W 2.64 | N 5.09 | L 2.42 | I 1.8 | H 2.29 | F 3.5 | Y 3.2 | Q 2.29
S22: D 1.39 | E 2.6 | Q 2.27 | P 3.03 | T 3.62 | H 4.07 | L 2.35
R21: W 4.43 | Y 4.92

Variants of: B2
Experiment: as above
Conditions: c terminus: a fixed tail appended

Protein stability index: each site, then its substitutions
F2: A 2.97 | E 4.07 | C 2.61 | I 2.9 | G 3.84 | D 2.15
Y1: E 1.88 | H 3.71 | T 2.37 | N 2.23 | I 2.47 | K 3.54 | M 2.11 | A 3.09 | V 3.34 | W 2.82 | Q 3.55 | P 1.71 | R 1.87 | F 2.3 | C 1.94 | S 2.85 | L 2.14 | D 2.58

Variants of: B3
Experiment: as above
Conditions: c terminus: a fixed tail appended

Protein stability index of substitutions, site by site:
A15: D 4.09 | S 3.22 | V 3.02 | L 3.58 | H 3.88 | Y 3.51 | N 3.54 | G 3.97 | P 3.19 | E 4.36 | T 1.9 | F 2.57 | Q 3.46 | W 2.93 | R 2.99
W22: Q 5.11 | A 5.26 | N 5.45 | T 5.07 | F 3.83 | E 5.52 | R 4.92 | V 4.21 | D 5.66 | G 5.31 | L 4.8 | I 4.49 | P 4.92 | H 4.79 | C 3.63
V18: W 2.22 | T 3.83 | F 2.31 | G 4.29 | E 4.54 | M 4.78 | P 3.31 | K 2.9 | Q 3.9 | Y 3.37
D2: L 2.56 | P 3.58 | F 3.15 | A 3.91 | K 3.71 | I 1.94 | V 3.2 | Y 2.81 | H 2.69 | Q 2.62 | T 2.59 | C 2.9 | M 3.13
A17: C 3.54 | T 2.71 | S 3.93 | G 3.69 | F 2.64 | P 3.28 | V 3.35 | N 3.61
V3: G 3.05 | C 3.75 | M 3.5 | T 3.99 | N 3.09 | P 4.43 | E 4.74 | Q 3.79 | H 3.86 | K 4.4 | S 3.13 | D 4.13 | F 3.32
R12: V 2.96 | P 4.61 | S 3.75 | H 4.38 | Y 3.96 | N 3.87 | C 2.99 | D 4 | W 2.33 | F 2.88 | K 4.19 | E 4.54 | A 3.5
T20: E 3.99 | N 3.28 | V 2.39 | R 3.29 | Y 2.43 | Q 3.34 | H 2.22 | F 2.74 | M 2.26 | I 2.12 | D 2.76 | S 3.32 | K 3.85 | A 4.18 | L 2.29 | P 2.15
N5: W 2.95 | L 2.82 | P 3.57 | K 3.21 | M 2.81 | F 2.62 | Q 3.07 | A 3.79 | Y 3.1 | S 2.03
L10: W 2.86 | K 3.8 | F 3.42 | H 3.82 | Q 3.25 | T 4.36
D14: W 1.48 | Y 1.45 | N 2.75 | T 2.12 | P 2.13 | A 1.97 | H 3.25 | S 2.26 | L 1.77 | R 2.38 | M 3.06
K8: P 4.16 | H 4.25 | I 2.51 | M 2.78 | E 3.6 | Q 3.34 | N 3.08 | F 2.2 | C 3.23 | Y 2.23 | V 3.44 | W 2.19
V7: W 3.13 | I 2.73 | G 4.2 | C 3.07 | K 4.23 | T 4.13 | S 3.56 | M 3.47 | P 4.57 | Y 3.31 | H 4.06 | Q 3.68 | N 2.94
E6: P 4.02 | K 3.17 | G 3.25 | M 2.05 | N 3.12 | R 3.65 | H 2.9 | S 3.21 | C 2.9
E23: C 2.83 | L 2.29 | K 3.59 | Q 2.68 | G 3.86 | I 2.59 | P 3.2 | S 2.53 | M 2.4 | T 2.96 | Y 2.56 | A 3.52 | R 2.75 | H 3.56
S19: P 3.75 | H 3.18 | M 2.48 | F 2.73 | Y 2.08 | I 3.03 | G 3.54
V24: C 4.15 | M 4.29 | A 4.61 | G 4.61 | Y 3.51 | D 4.24 | R 4.36 | T 4.31 | E 4.13 | P 4.63 | N 5.33
E16: F 2.27 | D 3.74 | Q 3.22 | I 2.08 | K 2.65 | T 2.77 | L 2.73 | S 3.17 | H 2.9 | C 2.01 | R 2.12 | M 1.71 | P 3.18 | Y 1.46
L11: Q 4.35 | M 3.14 | C 3.25 | D 4.9 | P 4.74 | K 4.37 | E 5.07 | R 4.2 | S 3.53 | N 4.79 | T 4.11 | A 4.29
R21: I 2.96 | D 5.01 | F 2.53 | T 3.06 | N 4.93 | G 4.36 | V 3.2 | H 3.58 | Q 4.18 | M 3.61 | E 5.41 | A 3.19 | P 3.87 | L 2.86 | S 2.95 | C 2.61 | Y 2.51 | K 3.76
E4: N 3.05 | T 3.17 | V 2.76 | D 2.19 | G 2.92 | F 1 | M 1.69 | W 1.93 | A 4.39 | P 3.86 | C 2.38 | Y 3.14 | K 3.35 | Q 3.21
R9: M 3.96 | Q 3.83 | N 3.66 | L 3.29 | K 4.02 | G 3.57 | T 3.44 | H 4.05 | F 2.69 | D 4.41 | P 4.17 | C 3.39 | Y 2.41
S13: Y 2.87 | K 3.76 | G 3.02 | Q 2.09 | M 3.54 | N 3.53 | F 1.9 | P 4.71 | D 4.14 | E 4.19 | I 3.29 | H 2.53
P1: R 2.36 | E 4.44 | L 3.52 | T 3.29 | I 2.79 | D 2.96 | H 2.27 | S 4.05 | A 2.92 | K 3.27 | Y 3 | N 3.43
